In publication PMC6983393:

Biological target: K. lactis 80S ribosome (40S and 60S subunits) (K. lactis)
Experiment: co-sedimentation; 30 pmol eIF5B, 15 pmol K. lactis 80S ribosomes, 0.1 mM GDPNP in 30 uL of 20 mM Hepes pH 7.4, 50 mM KCl, 2 mM DTT, 2.5 mM Mg-acetate, 30 C for 5 min; pelleted through a 1 M sucrose cushion (80,000 rpm, 3 h, 4 C); pellets on SDS/PAGE, Coomassie, bands quantified and normalised to WT

Work on “eIF5B-YxA mutant (K. lactis eIF5B 361-967, Tyr837 in S. cerevisiae numbering / Tyr802 in K. lactis substituted to alanine) (domain or fragment)” yielded a fold reduction in ribosomal binding against WT of 2 fold.

Work on “eIF5B-DIII-h12-Loop mutant (K. lactis eIF5B 361-967, residues 835-839 in S. cerevisiae numbering / 800-804 in K. lactis substituted to alanine) (domain or fragment)” yielded a fold reduction in ribosomal binding against WT of 2 fold.
